{
  "source": "paper PMC7059403",
  "about": "(Journal of the American Chemical Society, 2020)",
  "molecules": {"B1": {"name": "ClxD (H16_B0216), Clx decarboxylase (Cupriavidus necator H16) (protein)", "chain": "MNSRPRIAMVLGDPAGIGPELIARLLADPATAVQAEILLIADRDEWRHGMRIAGVELALAETDAPAFADDGKPRLYHWQLPERPAYARGQASAEGGRYSLGTLALALQLAQAGQADAILFGPLNKSSLHAAGMAHSDELHWFAEQLGCHGNFCEFNVLDGLWTSRVTSHVALKDVPAMITQERVGGAIDLIDQALRRAGMARPRIAVCGLNPHNGDNGAFGREEIDVIAPAVAAARERGVAADGPFPADTIFLKVQGGPSQRQFDAIVTMYHDQGQIGIKLMGFSRGVTVQGGLPVPITTPAHGTAFDITQQGRADPGATLQAFQIACRMGAQRRATA"}, "B2": {"name": "DkgM (H16_B1217), DKG mutase (Cupriavidus necator H16) (protein)", "chain": "MESQWTAVLVEKFGHSFSAYELDGGERRFSVQLPDYPHEFVVDRERLCGYVGHYGVQTFAHAGDGGAAVIAVDLMRGAVRARLDCSPYHRIHGLQIDRQGRVYALSERDNMLVVFEAPLEHPVPDRAVPAGGVKSHLFVLSADGERAYVTNLLSHTVTLVHPYDATRAPRAAYAGRRPEGCCLSRDEAALYVASRDDHSLTRLDARTMEAVRTVPTGEDPTRIYWSPDDRLFVLNYGERSIRVFDPDTLAETGRVDTGARPIALAFHPADPSRAYIALNDHTVGQLDLPGLALRHAFTTGKEPDGLAILALPTR"}, "B3": {"name": "DhaL (H16_A3012), DHA lactonase (Cupriavidus necator H16) (protein)", "chain": "MDTVRIFDERARELPLAGERLEQLACRATWSEGPVWLPDEDAVLWSDIPNDRILRWSAADGMSVWRTGAGFTNGHALEADGSLLHCSHGKRAIVRTHRSGARLGEDELVVSHYQGRRLNSPNDIVVKRDGTLWFTDPPYGILSDREGHRADPELRHNYVFRYDPAVGALEVASDLIEEPNGLAFSPDEDVLYVSDTSAALRDDGHHHIVAFDVVAGRVLANPRVFAVIAPGLPDGFRVDRRGWLFTSSASGVQVFHPDGTRLAHIPVPEKVGNLVFGGAEGDALFIAASTSLYRLRLGQRLT"}},
  "key": {"KdlD, Kdl dehydratase": {"biological_target": "T1, KdlD, Kdl dehydratase (Cupriavidus necator, UniProt Q0K4R0)", "T1 sequence (Q0K4R0 1-310)": "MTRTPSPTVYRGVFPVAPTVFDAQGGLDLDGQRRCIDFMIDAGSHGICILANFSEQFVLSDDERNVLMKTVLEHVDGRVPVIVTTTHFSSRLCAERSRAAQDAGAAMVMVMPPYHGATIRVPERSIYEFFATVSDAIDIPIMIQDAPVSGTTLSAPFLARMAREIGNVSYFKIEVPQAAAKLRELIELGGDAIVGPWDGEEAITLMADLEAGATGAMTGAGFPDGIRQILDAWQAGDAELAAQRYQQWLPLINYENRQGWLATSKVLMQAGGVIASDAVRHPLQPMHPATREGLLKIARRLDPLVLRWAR", "test": "in vitro activity assay", "assay_type": "biochemical"}, "[1]": {"biological_target": "T2, LyxD (H16_B0217), L-lyxonate dehydratase (Cupriavidus necator, UniProt Q0K4Q6)", "T2 sequence (Q0K4Q6 1-391)": "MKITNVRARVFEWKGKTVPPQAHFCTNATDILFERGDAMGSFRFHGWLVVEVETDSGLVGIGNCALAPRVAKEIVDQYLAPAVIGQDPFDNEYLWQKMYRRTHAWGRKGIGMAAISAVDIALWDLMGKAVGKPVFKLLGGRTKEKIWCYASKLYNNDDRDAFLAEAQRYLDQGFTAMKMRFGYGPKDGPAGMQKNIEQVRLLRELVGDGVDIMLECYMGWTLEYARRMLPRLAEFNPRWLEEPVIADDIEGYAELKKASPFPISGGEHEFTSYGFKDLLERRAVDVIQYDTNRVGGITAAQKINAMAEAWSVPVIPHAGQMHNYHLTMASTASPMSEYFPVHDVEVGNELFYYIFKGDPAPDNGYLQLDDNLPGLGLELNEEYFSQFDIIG", "test": "in vitro activity assay", "assay_type": "biochemical"}, "[2]": {"biological_target": "T3, ClxD (H16_B0216), Clx decarboxylase (Cupriavidus necator, UniProt Q0K4Q7)", "T3 sequence (Q0K4Q7 1-338)": "B1 chain", "test": "in vitro decarboxylation assay", "assay_type": "biochemical", "details": "with 2-carboxy-L-lyxonate; catalytic NAD+, regenerated in the reaction"}, "[3]": {"biological_target": "T4, KgsD (H16_B0212), Kgs dehydrogenase (Cupriavidus necator, UniProt Q0K4R1)", "T4 sequence (Q0K4R1 1-527)": "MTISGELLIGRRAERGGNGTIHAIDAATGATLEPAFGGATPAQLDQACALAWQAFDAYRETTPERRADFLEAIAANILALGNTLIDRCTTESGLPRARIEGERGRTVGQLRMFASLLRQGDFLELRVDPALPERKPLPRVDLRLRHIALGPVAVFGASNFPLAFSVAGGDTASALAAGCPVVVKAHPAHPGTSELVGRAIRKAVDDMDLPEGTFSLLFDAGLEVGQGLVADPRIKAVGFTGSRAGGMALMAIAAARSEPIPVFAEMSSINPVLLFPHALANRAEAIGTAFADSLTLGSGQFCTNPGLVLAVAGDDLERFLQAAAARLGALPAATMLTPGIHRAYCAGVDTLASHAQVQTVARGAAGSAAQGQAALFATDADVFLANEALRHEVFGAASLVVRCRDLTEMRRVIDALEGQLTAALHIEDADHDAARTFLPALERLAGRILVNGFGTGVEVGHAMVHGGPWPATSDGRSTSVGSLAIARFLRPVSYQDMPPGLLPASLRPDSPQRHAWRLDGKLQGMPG", "test": "in vitro activity assay", "assay_type": "biochemical"}, "in vitro enzyme kinetics [4]": {"substrate": "O=C(O)C(O)(C(=O)O)[C@H](O)[C@@H](O)CO", "test": "in vitro enzyme kinetics", "assay_type": "biochemical, Cupriavidus necator", "details": "NAD+ as catalytic cofactor"}, "in vitro enzyme kinetics [5]": {"substrate": "O=C(O)C(=O)C(=O)[C@H](O)[C@@H](O)CO", "test": "in vitro enzyme kinetics", "assay_type": "biochemical, Cupriavidus necator"}, "in vitro enzyme kinetics [6]": {"substrate": "O=C1O[C@H]([C@@H](O)CO)C(=O)C1=O", "test": "in vitro enzyme kinetics", "assay_type": "biochemical, Cupriavidus necator"}},
  "data": [
    {"molecule": "O=C(O)C(=O)C[C@@H](O)CO", "note": "[2-keto-3-deoxy-L-lyxonate]", "values": [
      {"measurement": "in vitro activity assay (dehydration)", "setting": "KdlD, Kdl dehydratase", "result": "heterologously expressed and display the predicted in vitro activities"}
    ]},
    {"molecule": "O=C(O)[C@H](O)[C@H](O)[C@@H](O)CO", "note": "[L-lyxonate]", "values": [
      {"measurement": "in vitro activity assay (dehydration)", "setting": "[1]", "result": "heterologously expressed and display the predicted in vitro activities"}
    ]},
    {"molecule": "NC(=O)c1ccc[n+]([C@@H]2O[C@H](COP(=O)(O)OP(=O)(O)OC[C@H]3O[C@@H](n4cnc5c(N)ncnc54)[C@H](O)[C@@H]3O)[C@@H](O)[C@H]2O)c1", "note": "[NAD^+]", "values": [
      {"measurement": "in vitro decarboxylation assay; stopped-flow absorbance at 340 nm", "setting": "[2]", "result": "generates L-lyxonate (Figure 1C), even with sub-stoichiometric amounts of NAD^+"}
    ]},
    {"molecule": "O=CCCC(=O)C(=O)O", "note": "[α-ketoglutarate semialdehyde]", "values": [
      {"measurement": "in vitro activity assay (oxidation)", "setting": "[3]", "result": "heterologously expressed and display the predicted in vitro activities"}
    ]},
    {"molecule": "B1", "values": [
      {"measurement": "Km", "setting": "in vitro enzyme kinetics [4]", "result": "800 ± 400", "unit": "µM"},
      {"measurement": "kcat", "setting": "in vitro enzyme kinetics [4]", "result": "0.33 ± 0.08", "unit": "s−^1"}
    ]},
    {"molecule": "B2", "values": [
      {"measurement": "Km", "setting": "in vitro enzyme kinetics [5]", "result": "81 ± 7", "unit": "µM"},
      {"measurement": "kcat", "setting": "in vitro enzyme kinetics [5]", "result": "0.6 ± 0.1", "unit": "s−^1"}
    ]},
    {"molecule": "B3", "values": [
      {"measurement": "Km", "setting": "in vitro enzyme kinetics [6]", "result": "490 ± 70", "unit": "µM"},
      {"measurement": "kcat", "setting": "in vitro enzyme kinetics [6]", "result": "8.0 ± 0.6", "unit": "s−^1"}
    ]}
  ]
}
